Laboratory results published in patent publication US20180086804A1 (COMMISSARIAT A L ENERGIE ATOMIQUE ET AUX ENERGIES …, published 2018).
Read-outs that look alike come from different tables or passages of the source. No end group written: not given here.

Key:
[1] = target: T1, HLA-DR7 (HLA-DRB1*07:01) (human); experiment: competition ELISA vs biotin-YKL
T1 construct: mature; purified from homozygous EBV-transformed lymphoblastoid cells with antibody L243

[2] = target: T2, HLA-DRB5 (HLA-DRB5*01:01) (human); experiment: competition ELISA vs biotin-HA 306-318;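 further: HLA and competitor incubated 24 to 72 h, maximal signal taken from wells lacking competitor, background from wells lacking HLA molecule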
T2 construct: mature; purified from homozygous EBV-transformed lymphoblastoid cells with antibody L243

[3] = target: T3, HLA-DR11 (HLA-DRB1*11:01) (human); experiment: competition ELISA vs biotin-HA 306-318;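 further: HLA and competitor incubated 24 to 72 h, maximal signal taken from wells lacking competitor, background from wells lacking HLA molecule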
T3 construct: mature; purified from homozygous EBV-transformed lymphoblastoid cells with antibody L243

[4] = target: T4, HLA-DR4 (HLA-DRB1*04:01) (human); experiment: competition ELISA vs biotin-HA 306-318;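 further: HLA and competitor incubated 24 to 72 h, maximal signal taken from wells lacking competitor, background from wells lacking HLA molecule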
T4 construct: mature; purified from homozygous EBV-transformed lymphoblastoid cells with antibody L243

[5] = target: T5, HLA-DR13 (HLA-DRB1*13:01) (human); experiment: competition ELISA vs biotin-B1 21-36
T5 construct: mature; purified from homozygous EBV-transformed lymphoblastoid cells with antibody L243

[6] = target: T6, HLA-DR3 (HLA-DRB1*03:01) (human); experiment: competition ELISA vs biotin-MT 2-16
T6 construct: mature; purified from homozygous EBV-transformed lymphoblastoid cells with antibody L243

[7] = target: T7, HLA-DR1 (HLA-DRB1*01:01) (human); experiment: competition ELISA vs biotin-HA 306-318;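 further: HLA and competitor incubated 24 to 72 h, maximal signal taken from wells lacking competitor, background from wells lacking HLA molecule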
T7 construct: mature; class II HLA molecule purified from homozygous EBV-transformed lymphoblastoid cells with antibody L243

[8] = target: T8, HLA-DR15 (HLA-DRB1*15:01) (human); experiment: competition ELISA vs biotin-A3 152-166
T8 construct: mature; purified from homozygous EBV-transformed lymphoblastoid cells with antibody L243

[9] = target: T9, HLA-DRB4 (HLA-DRB4*01:01) (human); experiment: competition ELISA vs biotin-E2/E168
T9 construct: mature; purified from homozygous EBV-transformed lymphoblastoid cells with antibody L243

[10] = target: T10, HLA-DP401 (HLA-DPB1*04:01) (human, UniProt P20036 29-222); experiment: competition ELISA vs biotin-Oxy 271-287;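 further: plates incubated 24–72 h, maximum binding defined by wells lacking competitor, background by wells lacking HLA molecule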
T10 construct: mature; purified from homozygous EBV-transformed lymphoblastoid cells with antibody B7/21

[11] = target: T11, HLA-DP402 (HLA-DPB1*04:02) (human, UniProt P20036 29-222); experiment: competition ELISA vs biotin-Oxy 271-287;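 further: plates incubated 24–72 h, maximum binding defined by wells lacking competitor, background by wells lacking HLA molecule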
T11 construct: mature; purified from homozygous EBV-transformed lymphoblastoid cells with antibody B7/21

[12] = target: T3, HLA-DR11 (HLA-DRB1*11:01); experiment: competition ELISA vs biotin-HA 306-318; remark: listed apart in the source
[13] = target: T7, HLA-DR1 (HLA-DRB1*01:01); experiment: competition ELISA vs biotin-HA 306-318; remark: listed apart in the source
[14] = target: T8, HLA-DR15 (HLA-DRB1*15:01); experiment: competition ELISA vs biotin-A3 152-166; remark: listed apart in the source
[15] = target: T1, HLA-DR7 (HLA-DRB1*07:01); experiment: competition ELISA vs biotin-YKL; remark: listed apart in the source
[16] = target: T12, HLA-DRB3 (HLA-DRB3*01:01) (human); experiment: competition ELISA vs biotin-LOL 191-210
T12 construct: mature; purified from homozygous EBV-transformed lymphoblastoid cells with antibody L243

[17] = target: T2, HLA-DRB5 (HLA-DRB5*01:01); experiment: competition ELISA vs biotin-HA 306-318; remark: listed apart in the source
[18] = target: T4, HLA-DR4 (HLA-DRB1*04:01); experiment: competition ELISA vs biotin-HA 306-318; remark: listed apart in the source
[19] = target: T6, HLA-DR3 (HLA-DRB1*03:01); experiment: competition ELISA vs biotin-MT 2-16; remark: listed apart in the source

In the case of QGLTKHMTVKNKYAT-NH2 [CCNB1 392-406], the relative affinity [1] is reported as 533, the relative affinity [2] is reported as 47 and the relative affinity [3] is reported as 693. For the same binder, the relative affinity [4] was 577, the relative affinity [5] was 7 and the relative affinity [6] was 408.

KPLEKVPMLVPVPVS-NH2 [CCNB1 81-95] was tested, and the relative affinity [4] was 500 and the relative affinity [7] was 524.

SPMETSGCAPAEEDL-NH2 [CCNB1 128-142] was tested, and the relative affinity [7] was 3590.

For EQLQAKMPMKKEAKP-NH2 [CCNB1 54-68], the relative affinity [1] was 808, the relative affinity [2] was 35 and the relative affinity [3] was 1410. For the same binder, the relative affinity [7] was 3740.

For GEWTPTLQHYLSYTE-NH2 [CCNB1 359-373], the relative affinity [1] was 0.4, the relative affinity [2] was 224 and the relative affinity [3] was 22. The relative affinity [4] was 500, the relative affinity [7] was 548 and the relative affinity [8] was 0.2.

SQIAAGAFCLALKIL-NH2 [CCNB1 342-356] was tested, and the relative affinity [9] was 57, the relative affinity [10] was 79 and the relative affinity [11] was 25. For the same binder, the relative affinity [12] was 3, the relative affinity [13] was 46 and the relative affinity [14] was 21. It also gave a relative affinity [15] of 20 and a relative affinity [16] of 239.

NKYATSKHAKISTLP-NH2 [CCNB1 402-416] was tested, and the relative affinity [1] was 9, the relative affinity [2] was 1730 and the relative affinity [3] was 4. For the same binder, the relative affinity [4] was 707 and the relative affinity [7] was 367.

NKVSEQLQAKMPMKK-NH2 [CCNB1 50-64] showed a relative affinity [2] of 51, a relative affinity [3] of 1550 and a relative affinity [5] of 258.

KKMLQLVGVTAMFIA-NH2 [CCNB1 241-255] showed a relative affinity [10] of 424, a relative affinity [11] of 35 and a relative affinity [17] of 1. For the same binder, the relative affinity [12] was 90, the relative affinity [18] was 1 and the relative affinity [13] was 3. For the same binder, the relative affinity [19] was 15, the relative affinity [14] was 1 and the relative affinity [15] was 0.1.

In the case of QHYLSYTEESLLPVM-NH2 [CCNB1 366-380], the relative affinity [10] is reported as 0.2, the relative affinity [11] is reported as 0.3 and the relative affinity [17] is reported as 471. The relative affinity [12] was 55, the relative affinity [18] was 65 and the relative affinity [13] was 32. The relative affinity [14] was 47, the relative affinity [15] was 1 and the relative affinity [16] was 32.

Binder KDIYAYLRQLEEEQA-NH2 [CCNB1 172-186] has a relative affinity [1] of 1600, a relative affinity [2] of 775 and a relative affinity [3] of 1. It also gave a relative affinity [7] of 42, a relative affinity [5] of 5 and a relative affinity [6] of 33. The relative affinity [8] was 11.

For EPVKEEKLSPEPILV-NH2 [CCNB1 108-122], the relative affinity [7] was 894.

GNMRAILIDWLVQVQ-NH2 [CCNB1 199-213] gave a relative affinity [9] of 9, a relative affinity [10] of 36 and a relative affinity [11] of 24. The relative affinity [17] was 58, the relative affinity [12] was 77 and the relative affinity [18] was 56. It also gave a relative affinity [13] of 27, a relative affinity [19] of 1 and a relative affinity [14] of 1. The relative affinity [15] was 10 and the relative affinity [16] was 9.

GAFCLALKILDNGEW-NH2 [CCNB1 347-361] showed a relative affinity [3] of 9 and a relative affinity [8] of 1.

In the case of TALGDIGNKVSEQLQ-NH2 [CCNB1 43-57], the relative affinity [5] is reported as 1790 and the relative affinity [8] is reported as 300.

KHMTVKNKYATSKHA-NH2 [CCNB1 396-410] gave a relative affinity [1] of 533, a relative affinity [3] of 7 and a relative affinity [4] of 408. The relative affinity [7] was 7480, the relative affinity [5] was 9 and the relative affinity [8] was 229.

Work on LQLVGVTAMFIASKY-NH2 [CCNB1 244-258] yielded a relative affinity [9] of 98, a relative affinity [10] of 77 and a relative affinity [11] of 32. For the same binder, the relative affinity [17] was 1, the relative affinity [12] was 23 and the relative affinity [13] was 2. It also gave a relative affinity [19] of 9, a relative affinity [14] of 1 and a relative affinity [15] of 1. For the same binder, the relative affinity [16] was 267.

LAVNDVDAEDGADPN-NH2 [CCNB1 151-165] showed a relative affinity [4] of 667.

Binder EDLCQAFSDVILAVN-NH2 [CCNB1 140-154] has a relative affinity [4] of 1110, a relative affinity [6] of 161 and a relative affinity [8] of 207.

Work on RQLEEEQAVRPKYLL-NH2 [CCNB1 179-193] yielded a relative affinity [1] of 271, a relative affinity [2] of 2160 and a relative affinity [7] of 9000. The relative affinity [5] was 943.

With PGLRPRTALGDIGNK-NH2 [CCNB1 37-51] the relative affinity [5] was 422.

In the case of LDYDMVHFPPSQIAA-NH2 [CCNB1 332-346], the relative affinity [1] is reported as 20, the relative affinity [2] is reported as 1580 and the relative affinity [3] is reported as 511. For the same binder, the relative affinity [4] was 289, the relative affinity [7] was 224 and the relative affinity [8] was 36.

Binder SKINAENKAKINMAG-NH2 [CCNB1 9-23] has a relative affinity [2] of 1000, a relative affinity [3] of 490 and a relative affinity [5] of 146. The relative affinity [6] was 22.

SDVILAVNDVDAEDG-NH2 [CCNB1 147-161] gave a relative affinity [4] of 54 and a relative affinity [8] of 7.

In the case of QAVRPKYLLGREVTG-NH2 [CCNB1 185-199], the relative affinity [2] is reported as 1670, the relative affinity [3] is reported as 22 and the relative affinity [4] is reported as 260. The relative affinity [7] was 59 and the relative affinity [5] was 4.

Work on DRFMQNNCVPKKMLQ-NH2 [CCNB1 231-245] yielded a relative affinity [2] of 1580, a relative affinity [3] of 2000 and a relative affinity [4] of 52. The relative affinity [7] was 11.

TGKVIDKKLPKPLEK-NH2 [CCNB1 71-85] was tested, and the relative affinity [2] was 250 and the relative affinity [6] was 228.

Work on SKIGEVDVEQHTLAK-NH2 [CCNB1 310-324] yielded a relative affinity [2] of 1500, a relative affinity [3] of 190 and a relative affinity [5] of 1800. For the same binder, the relative affinity [6] was 306.

RALNFGLGRPLPLHF-NH2 [CCNB1 291-305] showed a relative affinity [1] of 3, a relative affinity [2] of 4 and a relative affinity [3] of 1000. For the same binder, the relative affinity [4] was 1410, the relative affinity [7] was 1 and the relative affinity [8] was 65.

Work on AKMPMKKEAKPSATG-NH2 [CCNB1 58-72] yielded a relative affinity [3] of 40 and a relative affinity [5] of 683.

PKYLLGREVTGNMRA-NH2 [CCNB1 189-203] was tested, and the relative affinity [3] was 3, the relative affinity [4] was 34 and the relative affinity [7] was 17. It also gave a relative affinity [6] of 764.
